Results: IntAct's records for PubMed 29039417

B1: Protein PTHB1 (Homo sapiens), Q3SYG4 (parent)
chain: MSLFKARDWWSTILGDKEEFDQGCLCLANVDNSGNGQDKIIVGSFMGYLRIFSPHPAKTGDGAQAEDLLLEVDLRDPVLQVEVGKFVSGTEMLHLAVLHSRKLCVYSVSGTLGNVEHGNQCQMKLMYEHNLQRTACNMTYGSFGGVKGRDLICIQSMDGMLMVFEQESYAFGRFLPGFLLPGPLAYSSRTDSFLTVSSCQQVESYKYQVLAFATDADKRQETEQQKLGSGKRLVVDWTLNIGEQALDICIVSFNQSASSVFVLGERNFFCLKDNGQIRFMKKLDWSPSCFLPYCSVSEGTINTLIGNHNNMLHIYQDVTLKWATQLPHIPVAVRVGCLHDLKGVIVTLSDDGHLQCSYLGTDPSLFQAPNVQSRELNYDELDVEMKELQKIIKDVNKSQGVWPMTEREDDLNVSVVVSPNFDSVSQATDVEVGTDLVPSVTVKVTLQNRVILQKAKLSVYVQPPLELTCDQFTFEFMTPDLTRTVSFSVYLKRSYTPSELEGNAVVSYSRPTDRNPDGIPRVIQCKFRLPLKLICLPGQPSKTASHKITIDTNKSPVSLLSLFPGFASQSDDDQVNVMGFHFLGGARITVLASKTSQRYRIQSEQFEDLWLITNELILRLQEYFEKQGVKDFACSFSGSIPLQEYFELIDHHFELRINGEKLEELLSERAVQFRAIQRRLLARFKDKTPAPLQHLDTLLDGTYKQVIALADAVEENQGNLFQSFTRLKSATHLVILLIALWQKLSADQVAILEAAFLPLQEDTQELGWEETVDAAISHLLKTCLSKSSKEQALNLNSQLNIPKDTSQLKKHITLLCDRLSKGGRLCLSTDAAAPQTMVMPGGCTTIPESDLEERSVEQDSTELFTNHRHLTAETPRPEVSPLQGVSE
partner: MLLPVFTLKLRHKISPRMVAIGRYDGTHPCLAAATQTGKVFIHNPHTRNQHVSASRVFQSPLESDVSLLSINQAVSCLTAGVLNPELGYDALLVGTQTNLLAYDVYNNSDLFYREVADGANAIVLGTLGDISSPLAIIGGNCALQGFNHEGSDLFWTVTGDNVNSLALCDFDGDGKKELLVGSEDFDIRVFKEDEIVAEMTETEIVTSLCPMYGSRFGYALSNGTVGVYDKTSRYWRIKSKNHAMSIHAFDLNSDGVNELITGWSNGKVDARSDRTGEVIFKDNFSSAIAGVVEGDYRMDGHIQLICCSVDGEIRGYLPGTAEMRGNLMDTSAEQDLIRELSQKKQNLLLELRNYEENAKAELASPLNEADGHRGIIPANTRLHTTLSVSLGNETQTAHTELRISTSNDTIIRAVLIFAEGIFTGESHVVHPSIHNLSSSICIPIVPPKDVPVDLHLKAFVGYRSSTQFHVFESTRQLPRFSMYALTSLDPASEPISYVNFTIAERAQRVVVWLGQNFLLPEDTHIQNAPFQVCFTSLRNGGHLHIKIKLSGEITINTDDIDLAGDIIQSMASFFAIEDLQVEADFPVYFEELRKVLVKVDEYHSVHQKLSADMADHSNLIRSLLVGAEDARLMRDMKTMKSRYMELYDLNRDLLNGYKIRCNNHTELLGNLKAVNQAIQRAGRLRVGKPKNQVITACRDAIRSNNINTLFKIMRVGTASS
B2: Protein PTHB1 (Homo sapiens), Q3SYG4 (parent)
chain: B1 chain
partner: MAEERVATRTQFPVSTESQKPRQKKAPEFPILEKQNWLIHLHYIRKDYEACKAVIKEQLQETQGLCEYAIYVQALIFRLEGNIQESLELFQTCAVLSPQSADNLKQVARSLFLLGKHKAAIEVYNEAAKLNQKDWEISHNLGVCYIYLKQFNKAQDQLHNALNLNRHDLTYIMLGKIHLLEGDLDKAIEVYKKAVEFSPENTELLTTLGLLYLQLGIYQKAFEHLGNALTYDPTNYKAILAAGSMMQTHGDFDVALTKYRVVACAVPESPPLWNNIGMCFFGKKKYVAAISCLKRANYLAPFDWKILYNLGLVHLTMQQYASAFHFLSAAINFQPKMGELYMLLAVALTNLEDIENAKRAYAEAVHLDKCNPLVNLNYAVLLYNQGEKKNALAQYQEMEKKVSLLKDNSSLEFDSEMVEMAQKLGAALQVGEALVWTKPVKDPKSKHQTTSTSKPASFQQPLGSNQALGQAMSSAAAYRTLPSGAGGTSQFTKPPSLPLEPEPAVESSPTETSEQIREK

Variants of: B1
Settings: with bbs2_human BBS2, Q9BXC9

effect of a mutation on the interaction	Variant
with no effect	P881E
with no effect	P881K
with no effect	P881A
with no effect	V885E
with no effect	V885A
with no effect	V885K
with no effect	T871E
with no effect	T871K
with no effect	T871A
with no effect	E878A
with no effect	E878K
with no effect	E887K
with no effect	E887A
with no effect	L870K
with no effect	L870A
with no effect	L870E
with no effect	R868K
with no effect	R868E
with no effect	R868A
with no effect	V879E

effect of a mutation on the interaction	Variant
with no effect	V879A
with no effect	V879K
with no effect	P877E
with no effect	P877K
with no effect	P877A
with no effect	H869A
with no effect	H869K
with no effect	H869E
with no effect	G884A
with no effect	G884K
with no effect	G884E
with no effect	T874K
with no effect	T874A
with no effect	T874E
with no effect	A872E
with no effect	A872K
with no effect	L882K
with no effect	L882A
with no effect	L882E
with no effect	P875A

effect of a mutation on the interaction	Variant
with no effect	P875E
with no effect	P875K
with no effect	S886K
with no effect	S886A
with no effect	S886E
with no effect	R876K
with no effect	R876A
with no effect	R876E
with no effect	S880A
with no effect	S880K
with no effect	S880E
with no effect	H867K
with no effect	H867E
with no effect	H867A
with no effect	Q883A
with no effect	Q883K
with no effect	Q883E
with no effect	E873K
with no effect	E873A

Variants of: B2
Settings: with bbs4_human BBS4, Q96RK4

effect of a mutation on the interaction	Variant
with no effect	T441E
with no effect	T441A
with no effect	T441K
with no effect	T445A
with no effect	T445E
with no effect	T445K
with no effect	V444E
disrupting interaction strength	V444I
with no effect	V444K
with no effect	V444A
with no effect	P438E
with no effect	P438K
with no effect	P438A
with no effect	V440A
disrupting interaction strength	V440K
with no effect	V440E
with no effect	V442E

effect of a mutation on the interaction	Variant
with no effect	V442K
with no effect	V442A
with no effect	S439K
with no effect	S439A
with no effect	S439E
with no effect	Q447A
with no effect	Q447E
with no effect	Q447K
with no effect	L446E
with no effect	L446K
with no effect	L446A
with no effect	K443A
with no effect	K443E
with no effect	N448K
with no effect	N448E
with no effect	N448A
with no effect	V437K

More lines, now with the values behind:

Variant	effect of a mutation on the interaction
V415A	with no effect
V415K	with no effect
V415E	with no effect
V417A	with no effect
V417K	with no effect
V417E	with no effect
T428K	with no effect
T428A	with no effect
T428E	with no effect
N420E	with no effect
N420K	with no effect
N420A	with no effect
L411K	with no effect
L411A	with no effect
L411E	with no effect
D429E	with no effect
D429K	with no effect
D429A	with no effect
V413K	with no effect
V413E	with no effect
V413A	with no effect
E406A	with no effect
E406K	with no effect
D410A	with no effect

Variant	effect of a mutation on the interaction
D410E	with no effect
D410K	with no effect
F421A	with no effect
F421E	with no effect
F421K	with no effect
T434E	with no effect
T434A	with no effect
T434K	with no effect
S414K	with no effect
S414A	with no effect
S414E	with no effect
N412E	with no effect
N412K	with no effect
N412A	with no effect
L436K	with no effect
L436A	with no effect
L436E	with no effect
S425K	with no effect
S425E	with no effect
S425A	with no effect
T405K	with no effect
T405E	with no effect
T405A	with no effect
Q426K	with no effect

Variant	effect of a mutation on the interaction
Q426E	with no effect
Q426A	with no effect
E408A	with no effect
E408K	with no effect
R407K	with no effect
R407E	with no effect
R407A	with no effect
A427K	with no effect
A427E	with no effect
S418A	with no effect
S418K	with no effect
S418E	with no effect
D435E	with no effect
D435K	with no effect
D435A	with no effect
E431A	with no effect
E431K	with no effect
V430K	with no effect
V430E	with no effect
V430A	with no effect
V424E	with no effect
V424K	with no effect
V424A	with no effect
V416E	with no effect

Variant	effect of a mutation on the interaction
V416A	with no effect
V416K	with no effect
V437A	with no effect
V437E	with no effect
V432E	with no effect
V432K	with no effect
V432A	with no effect
D409E	with no effect
D409A	with no effect
D409K	with no effect
D422A	with no effect
D422E	with no effect
D422K	with no effect
G433K	with no effect
G433E	with no effect
G433A	with no effect
P419E	with no effect
P419A	with no effect
P419K	with no effect
S423K	with no effect
S423E	with no effect
S423A	with no effect
